These are literature values, as cited in publication PMC10651016.

For this series, the system named is Lys110. Put plainly: kinetics. Particulars: steady-state turnover with L-proline; FAD-bound enzyme.

Take “L-proline dehydrogenase (ProDH) (Mycobacterium tuberculosis)”: the pKa is on record as 6.8.
